Experimental data: IntAct's records for PubMed 22759634

B1: DNA annealing helicase and endonuclease ZRANB3 (Homo sapiens), Q5FWF4 (parent)
chain: MPRVHNIKKSLTPHISCVTNESDNLLDFLPDRLRAKLLPFQKDGIIFALKRNGRCMVADEMGLGKTIQAIGITYFYKEEWPLLIVVPSSLRYPWTEEIEKWIPELSPEEINVIQNKTDVRRMSTSKVTVLGYGLLTADAKTLIDALNNQNFKVVIVDESHYMKSRNATRSRILLPIVQKARRAILLTGTPALGRPEELFMQIEALFPQKFGRWTDYAKRYCNAHIRYFGKRPQWDCRGASNLNELHQLLSDIMIRRLKTEVLTQLPPKVRQRIPFDLPSAAAKELNTSFEEWEKIMRTPNSGAMETVMGLITRMFKQTAIAKAGAVKDYIKMMLQNDSLKFLVFAHHLSMLQACTEAVIENKTRYIRIDGSVSSSERIHLVNQFQKDPDTRVAILSIQAAGQGLTFTAASHVVFAELYWDPGHIKQAEDRAHRIGQCSSVNIHYLIANGTLDTLMWGMLNRKAQVTGSTLNGRKEKIQAEEGDKEKWDFLQFAEAWTPNDSSEELRKEALFTHFEKEKQHDIRSFFVPQPKKRQLMTSCDESKRFREENTVVSSDPTKTAARDIIDYESDVEPETKRLKLAASEDHCSPSEETPSQSKQIRTPLVESVQEAKAQLTTPAFPVEGWQCSLCTYINNSELPYCEMCETPQGSAVMQIDSLNHIQDKNEKDDSQKDTSKKVQTISDCEKQALAQSEPGQLADSKEETPKIEKEDGLTSQPGNEQWKSSDTLPVYDTLMFCASRNTDRIHIYTKDGKQMSCNFIPLDIKLDLWEDLPASFQLKQYRSLILRFVREWSSLTAMKQRIIRKSGQLFCSPILALEEITKQQTKQNCTKRYITKEDVAVASMDKVKNVGGHVRLITKESRPRDPFTKKLLEDGACVPFLNPYTVQADLTVKPSTSKGYLQAVDNEGNPLCLRCQQPTCQTKQACKANSWDSRFCSLKCQEEFWIRSNNSYLRAKVFETEHGVCQLCNVNAQELFLRLRDAPKSQRKNLLYATWTSKLPLEQLNEMIRNPGEGHFWQVDHIKPVYGGGGQCSLDNLQTLCTVCHKERTARQAKERSQVRRQSLASKHGSDITRFLVKK

Variants of: B1
Conditions: with pcna_human PCNA

Row | effect of a mutation on the interaction | Variant
1 | disrupting interaction strength | Q519A;F525A;F526A

Variants of: B1
Conditions: with pcna_human PCNA
Remark: another data set of the same source

Row | effect of a mutation on the interaction | Variant
2 | decreasing interaction strength | Q519A;F525A;F526A;Y632A
